Test results as given in patent publication US11479580B2, “Polypeptide expressed in the stratum corneum and use thereof” (CENTRE NATIONAL DE LA RECHERCHE SCIENTIFIQUE—CNRS, priority 2010, dated 2022).

T1: transglutaminase 3 (Homo sapiens, UniProt Q08188)
T1 construct: purchased R&D Systems
T1 sequence (Q08188 1-693): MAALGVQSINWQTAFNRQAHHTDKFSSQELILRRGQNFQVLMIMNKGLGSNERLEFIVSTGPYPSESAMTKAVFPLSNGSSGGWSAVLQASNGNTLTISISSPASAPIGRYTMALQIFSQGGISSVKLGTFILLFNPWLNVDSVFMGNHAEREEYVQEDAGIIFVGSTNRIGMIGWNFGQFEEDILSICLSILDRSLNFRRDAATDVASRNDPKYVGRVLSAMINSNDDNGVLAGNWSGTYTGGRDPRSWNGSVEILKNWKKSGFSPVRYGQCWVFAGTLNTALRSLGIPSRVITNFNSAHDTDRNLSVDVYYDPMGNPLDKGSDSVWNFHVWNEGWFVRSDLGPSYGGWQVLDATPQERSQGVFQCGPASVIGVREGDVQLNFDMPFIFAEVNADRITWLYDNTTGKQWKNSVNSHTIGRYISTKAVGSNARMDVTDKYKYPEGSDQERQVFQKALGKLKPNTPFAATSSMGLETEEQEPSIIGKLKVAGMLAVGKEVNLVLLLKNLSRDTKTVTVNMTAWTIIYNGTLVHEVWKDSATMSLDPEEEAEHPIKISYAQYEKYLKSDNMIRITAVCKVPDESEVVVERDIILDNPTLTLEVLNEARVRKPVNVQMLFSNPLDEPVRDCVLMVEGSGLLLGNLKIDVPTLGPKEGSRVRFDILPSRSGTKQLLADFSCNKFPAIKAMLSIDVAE

T2: transglutaminase 2 (UniProt P08587)
T2 construct: transglutaminase purified from guinea pig liver; purchased Sigma T5398; host or cells: guinea pig liver
T2 sequence (P08587 1-690): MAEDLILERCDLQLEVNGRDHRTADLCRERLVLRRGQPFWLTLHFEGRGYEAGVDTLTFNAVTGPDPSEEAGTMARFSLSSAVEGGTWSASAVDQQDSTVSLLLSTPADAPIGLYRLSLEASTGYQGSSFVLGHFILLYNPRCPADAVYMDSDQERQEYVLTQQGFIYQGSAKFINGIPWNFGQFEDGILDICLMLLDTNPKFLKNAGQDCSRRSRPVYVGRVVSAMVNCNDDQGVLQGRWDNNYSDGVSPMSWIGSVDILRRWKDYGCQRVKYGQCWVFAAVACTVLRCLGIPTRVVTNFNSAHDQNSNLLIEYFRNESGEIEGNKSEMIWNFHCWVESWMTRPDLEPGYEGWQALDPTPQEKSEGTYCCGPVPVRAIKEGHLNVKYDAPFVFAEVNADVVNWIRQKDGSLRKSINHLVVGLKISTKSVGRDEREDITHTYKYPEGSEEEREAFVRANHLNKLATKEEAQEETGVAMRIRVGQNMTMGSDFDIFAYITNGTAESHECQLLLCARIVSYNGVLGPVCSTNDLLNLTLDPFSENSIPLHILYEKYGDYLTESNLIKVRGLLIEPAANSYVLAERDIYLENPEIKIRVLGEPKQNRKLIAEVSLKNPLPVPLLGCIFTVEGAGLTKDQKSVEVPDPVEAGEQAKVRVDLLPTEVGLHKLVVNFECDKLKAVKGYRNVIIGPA

B1: LCE6A-His: recombinant LCE6A possessing a C-terminal histidine tag (protein, UniProt A0A183 1-80, looked up)
Late cornified envelope …: MSQQKQQSWKPPNVPKCSPPQRSNPCLAPYSTPCGAPHSEGCHSSSQRPEVQKPRRARQKLRCLSRGTTYHCKEEECEGD
modifications: His tag
B2: LCE6A: polypeptide of 80 amino acids of the Late Cornified Envelope family, expressed in the epidermis (protein, listed as Homo sapiens)
chain: B1 Late cornified envelope …

What was measured:
transglutaminase 3 = target: T1, transglutaminase 3; test: In-vitro transglutaminase 3 binding assay (TGM3); type: biochemical
Protocol: A binding assay of LCE6A by transglutaminase 3 (human recombinant transglutaminase 3, R&D Systems) was performed in vitro. These assays are carried out according to the same experimental protocol as that described in example 4 paragraph 2 with transglutaminase 2.
(§1) In a first experiment, the applicant tested the capacity of TGM3 to form bridges between LCE-His and monodansyl cadaverine (MDC). For this, TGM3 (10 ng/μL) was incubated in the presence of 0.35 μg of LCE6A-His in solution in a buffer 50 mM Tris, 100 mM DTT, pH 7.4, with addition of 10 mM CaCl2 and 500 μM MDC (Fluka). After incubation for 2 h or 18 h at 37° C., the reaction is stopped by adding EDTA to final 25 mM. The negative control corresponds to the same experiment performed in the absence of CaCl2 and in the presence of 100 mM of ETDA after incubation for 18 h. The reaction product is separated by SDS-PAGE 15%, then visualized by illumination with UV.
In a second experiment, the applicant tested the capacity of TGM3 to form bridges of LCE6A with itself. For this, TGM3 (10 ng/μL) was incubated in the presence of 0.35 μg of LCE6A-His in a buffer 50 mM Tris, 100 mM DTT, pH 7.4, with addition of 10 mM CaCl2. After incubation for 2 h or 18 h at 37° C., the reaction is stopped by adding EDTA to final 25 mM. The negative control corresponds to the same experiment performed in the absence of CaCl2 and in the presence of 100 mM of ETDA after incubation for 18 h. The reaction product is separated by SDS-PAGE 15% and transferred onto a nitrocellulose membrane. The intermolecular bonds are visualized by Western Blot as described above with an anti-His antibody (mouse monoclonal IgG1 “Tetra-His antibody”, Qiagen).

transglutaminase 2 = target: T2, transglutaminase 2; test: In-vitro transglutaminase 2 binding assay (TGM2); type: biochemical, guinea pig
Protocol: A binding assay of LCE6A by transglutaminase 2 (transglutaminase purified from guinea pig liver, Sigma T5398) was performed in vitro.
as §1, with “capacity of TGM2 to form” for “capacity of TGM3 to form”, “LCE-His and a molecule bearing an amine bond, monodansyl cadaverine” for “LCE-His and monodansyl cadaverine”, “For this, TGM2 (10 ng/μL)” for “For this, TGM3 (10 ng/μL)”
In a second experiment, the applicant also tested the capacity of TGM2 to form bridges of LCE6A with itself. For this, TGM2 (10 ng/μL) was incubated in the presence of 0.35 μg of LCE6A-His in a buffer 50 mM Tris, 100 mM DTT, pH 7.4, with addition of 10 mM CaCl2. After incubation for 2 h or 18 h at 37° C., the reaction is stopped by adding EDTA to final 25 mM. The negative control corresponds to the same experiment performed in the absence of CaCl2 and in the presence of 100 mM of ETDA after incubation for 18 h. The reaction product is separated by SDS-PAGE 15% and transferred onto a nitrocellulose membrane. The intermolecular bonds are visualized by Western Blot as described above with an anti-His antibody (mouse monoclonal IgG1 “Tetra-His antibody”, Qiagen).

[1] = 100 mM EDTA, absence of calcium, 18 h
[2] = absence of calcium, 100 mM EDTA

Row | Molecule | capacity of TGM3 to form bridges between LCE-His and MDC, fluorescent bands, negative control (transglutaminase 3; [1]) | capacity of TGM3 to form bridges between LCE-His and monodansyl cadaverine (MDC), fluorescent bands after SDS-PAGE under UV (transglutaminase 3; TGM3 10 ng/μL, 10 mM CaCl2, 500 μM MDC, starting from 2 h of incubation at 37° C.) | capacity of TGM3 to form bridges of LCE6A with itself, Western Blot with anti-His antibody (transglutaminase 3; TGM3 10 ng/μL, 10 mM CaCl2, 2 h or 18 h at 37° C.) | capacity of TGM3 to form bridges of LCE6A with itself, Western Blot, negative control (transglutaminase 3; [2]) | capacity of TGM2 to form bridges between LCE-His and MDC, fluorescent bands, negative control (transglutaminase 2; [1]) | capacity of TGM2 to form bridges between LCE-His and monodansyl cadaverine (MDC), fluorescent bands after SDS-PAGE under UV (transglutaminase 2; TGM2 10 ng/μL, 10 mM CaCl2, 500 μM MDC, starting from 2 h of incubation at 37° C.) | capacity of TGM2 to form bridges of LCE6A with itself, Western Blot with anti-His antibody (transglutaminase 2; TGM2 10 ng/μL, 10 mM CaCl2, 2 h or 18 h at 37° C.) | capacity of TGM2 to form bridges of LCE6A with itself, Western Blot, negative control (transglutaminase 2; [2]) | substrate of transglutaminase 3 (conclusion) (transglutaminase 3) | substrate of transglutaminase 2 (conclusion) (transglutaminase 2)
1 | B1 | No fluorescent band, apart from that corresponding to the free MDC, is detected | several fluorescent bands were detected | several bands of higher molecular weight migrating to a size equivalent to dimers or multimers of LCE6A-His | Only the band corresponding to monomeric LCE6A-His is detected | No fluorescent band, apart from that corresponding to the free MDC, is detected | several fluorescent bands were detected | several bands of higher molecular weight migrating to a size equivalent to dimers or multimers of LCE6A-His | Only the band corresponding to monomeric LCE6A-His is detected | – | –
2 | B2 | – | – | – | – | – | – | – | – | substrate of transglutaminase 3 | substrate of transglutaminase 2
